Data published in patent US20220089663A1, “PROTEINS AND FLUOROPHORE-CONTAINING COMPOUNDS SELECTIVE FOR NaV1.7” (MEMORIAL SLOAN KETTERING CANCER CENTER, priority 2019, published 2022).

Tests used:
Test in all cases: cell-based or functional assay
hNav1.1 (human) = hNav1.1 (human) (UniProt P35498)
hNav1.2 (human) = hNav1.2 (human) (UniProt Q99250)
hNav1.3 (human) = hNav1.3 (human) (UniProt Q9NY46)
hNav1.4 (human) = hNav1.4 (human) (UniProt P35499)
hNav1.5 (human) = hNav1.5 (human) (UniProt Q14524)
hNav1.6 (human) = hNav1.6 (human) (UniProt Q9UQD0)
hNav1.7 (human) = hNav1.7 (human) (UniProt Q15858)

Row | Substance | fold selectivity of hNav1.7 over this channel (hNav1.1 (human)) | pIC50, whole-cell patch clamp (QPatch 16X) (hNav1.1 (human)) | fold selectivity of hNav1.7 over this channel (hNav1.2 (human)) | pIC50, whole-cell patch clamp (QPatch 16X) (hNav1.2 (human)) | fold selectivity of hNav1.7 over this channel (hNav1.3 (human)) | pIC50, whole-cell patch clamp (QPatch 16X) (hNav1.3 (human)) | fold selectivity of hNav1.7 over this channel (hNav1.4 (human)) | pIC50, whole-cell patch clamp (QPatch 16X) (hNav1.4 (human)) | fold selectivity of hNav1.7 over this channel (hNav1.5 (human)) | pIC50, whole-cell patch clamp (QPatch 16X) (hNav1.5 (human)) | fold selectivity of hNav1.7 over this channel (hNav1.6 (human)) | pIC50, whole-cell patch clamp (QPatch 16X) (hNav1.6 (human)) | pIC50, whole-cell patch clamp (QPatch 16X) (hNav1.7 (human)) | recovery of currents after washout (hNav1.7 (human)) | IC50, automated whole-cell patch clamp (hNav1.7 (human))
1 | synthetic Hsp1a (peptide) | 40 fold | 6.39 M | 28 fold | 6.52 M | > 100 fold | < 6 M | > 100 fold | < 6 M | > 100 fold | < 6 M | > 100 fold | < 6 M | 7.98 M | 10 min | 
2 | µ-theraphotoxin-Hsp1a (peptide) |  |  |  |  |  |  |  |  |  |  |  |  |  |  | 0.013 µM
